{"source": "the DeepSol protein solubility set", "data": [{"test": "soluble on expression in E. coli; label from the status in PepcDB or PDB records", "values": [{"sequence": "MDQGPINRPHFFFTTAPMPCPYLEGHLERKMVTDLTGPEAERLHESLSRAGFRRSHTIAYAPVCPGCTACVPVRIRARAFVKNKSFRRIVRANAGVTAEYVPARATVEQFHLFSQYQQARHGESDMALMGFFDYRSMVEDSPISTSIAEFREAGGELVAACLIDHLSDGLSAVYSFFNTTLPQSRGLGTWMILWMVDETVRRDLDHVYLGYWIAESSKMAYKERFQPLEVFGRRGWIAFDERGRPGLEHHHHHH", "soluble on expression in E. coli": "not soluble"}, {"sequence": "MGSDKIHHHHHHMQEKKTLTFVVPAYNMTEYLERCVESLIASKRNDDIEVLIVDDGSSDGTLEMAKTFEARNPGIVRAIHQENKGHGGAVNTGIAAASGMYVKVVDADDWVGPESLEQVLAVLRDEVGKDDPLDMLVTNYVYDKVGKRNKHVVNFRHAMEPGKRLTWDDLGHFGLTEYILMHALVYRTAVVRESKMQLPEHTFYVDFIYAYQPFPWVKSLQYLDTPFYHYFIGRDGQSVQTDVMIRRVDQLRLVNQCMVHATPERGTVPDGLYRYMIHFLAIESSVASVFMILSREPENYEKKKAMWADIEAYSPTIYKDVRKKAMSRALNLRGSAGRFVIRKGYFLAEHVVGFN", "soluble on expression in E. coli": "not soluble"}, {"sequence": "MSRIRSNNDNIIILTDEQRKTVGRIAGRSQNRNTSKKIADGPYFLPRYRIRDNAERSVGARFKSLPQKEQDEVVNEAFSNLREYLKKREPFYAKLRKANSKYSSKPKEREKSVDSNDEADRRNKGNKKTQKNASKNCQIEKSSNNSGILKKSGSGISVASKPKKSVAFAPGVYEDLSTDDDLEFLNSVIVNSDRPTSQCDNPARRMCGRPPTKHRDTEQSQEITGSKKQKIFPTPHEKPAWWSFRIPKKRAQ", "soluble on expression in E. coli": "soluble"}, {"sequence": "MSLARFFQPKKHSTLDTKHQPVTIERLDHQGSGLAFLHKKPLFVDGALPGEEVLIQLTENKSKYARGQLIKVLKPSAERVAPFCAHYAQCGGCDLQHLDRAGQIHHKQQALSQLMVKFAGQSLALSAPVCSDDQGYRRRARLSLMWDKKTQQLQLGFRRKQSKAIVNVTHCPVLEPSLNALLPDLNALLSEWSQPERLGHVELVKGDNTRVLVLRHLGALIEQDQQRLTDFASQNQLTLYLMLEAGELQHVQGEAPYCEETGSRLSFLPSHFIQVNRAVNQHMVVQALNWLEVSPQERVLDLFCGLGNFTLPLAKQAQAVVGVEGVDEMVQHATHNAKLNQINNVAFYQANLEQDMTSASWAQQKFAKVLLDPARAGAEGIVDQLSALGAKRVVYVSCNPATLARDSQSLLSQGFRLEKLGMLDMFPHTSHLESMALFVKKGEGHHHHHH", "soluble on expression in E. coli": "soluble"}, {"sequence": "MLISLIVPIYNVEGFLPRCLDSIIKQEYQNLEIVLVNDGSTDQSGLICDQYAEKDERFIVFHKENGGVSSARNVGLNKANGNYIGFVDPDDWIEPNMINKLYELIIQHKADIAMCGYVKEDINGLLISRPVELSTKILNKEDTLNSILNPNDFRGFLCNKLFSVDLFRKKNLYLDEDIHFCEDLLFCCQAILESKQIVYDSTPYYHYIIHNNNASKSNFSFKKLTALNSLDNIINLLNDQKGIELEQYKNYYMHLNISLLMNGIHEDKIRRQDKERLKKNLYKFKINDLTSKFVKFSCVLARLNLNLYYFIWKNAKPSN", "soluble on expression in E. coli": "not soluble"}, {"sequence": "GPGSMQVINENSLREFYAHVYPVELVTQWLSYRLSQPRLSAGSSVAVVKGEPTAVSGEESKDGVRHVLGIKAEPCDAVGAAAGADDEDKEWLNGKGAAAAEGYLARREFCFTLIGDIFTRFRSYRSSEELRAELVRCFPEKIDVGAVYNIRPNQKQGLANVFPVERELVFDIDMSDYDNVRSCCSGKSICSYCWAWMSCAAHVLHTVLRDDFGFKYILPVFSGRRGIHLWVCDRRARRMTNDERTALVGYLTVVAPKTLRSTIVADLANHRLIHPTIRHVLRTQLDRAFTSLFVASSSDNPNNIQHHPTAAYIVHDATSAVLKLGRRDALNRFQQHVHFQQGNVLDWATYLRALGSEQEATDILHAVQLLLMYPRLDEHVSTRRDHLLKLPFCVHPGTASLCCPLEWDEVDGFHPTEDAPKLHEMLLSRSLDVRWTLPLERMLKDMRTDEDENSS", "soluble on expression in E. coli": "not soluble"}, {"sequence": "MGSDKIHHHHHHMSTVTTGRTLDANGDPVPGTGFELDPDSQFADRVRERTGPVTSHPTRPVWGIPLEGSGDTIRTLSVFGPGYGGPPEHYHEQSPERFEVERGSLTMMLDGTDHEVTAGETATVETGVTHTFRNDTDKRAVVITNIYSPGRLRQVLPTLGGLAHDDEGNPENPLQQALVADRLDGNTVFTRQERLEPLSRLLTPVAELAGYQGAYAKYTQPAFWERHVEQPDL", "soluble on expression in E. coli": "not soluble"}, {"sequence": "VEGRFQLVAPYEPQGDQPQAIAKLVDGLRRGVKHQTLLGATGTGKTFTISNVIAQVNKPTLVIAHNKTLAGQLYSELKEFFPHNAVEYFVSYYDYYQPEAYVPQTDTYIEKDAKINDEIDKLRHSATSALFERRDVIIVASVSCIYGLGSPEEYRELVVSLRVGMEIERNALLRRLVDIQYDRNDIDFRGTFRVRGDVVEIFPASRDEHCIRVEFFGDEIERIRAEVDALTGKVLGEREHVAIFPASHFVTREEKMRLAIQNIEQELEERLAELRAQGKLLEAQRLEQRTRYDLEMMREMGFCSGIENYSRHLALRPPGSTPYTLLDYFPDDFLIIVDESHVTLPQLRGMYNGDRARKQVLVDHGFRLPSALDNRPLTFEEFEQKINQIIYVSATPGPYELEHSPGVVEQIIRPTGLLDPTIDVRPTKGQIDDLIGEIRERVERNERTLVTTLTKKMAEDLTDYLKEAGIKVAYLHSEIKTLERIEIIRDLRLGKYDVLVGINLLREGLDIPEVSLVAILDADKEGFLRSERSLIQTIGRAARNANGHVIMYADTITKSMEIAIQETKRRRAIQEEYNRKHGIVPRTVKKEIRDVIRATYAAEETEMYEAKPAAAMTKQEREELIRTLEAEMKEAAKALDFERAAQLRDIIFELKAEG", "soluble on expression in E. coli": "soluble"}, {"sequence": "MAEITEVRIYKSKGNGSVKAYASVSFDNEFVVKGLKVVEGEKGLWVSMPSRRMKDGSFQDVFHPVSREARDKIVDAVLKAYQEQE", "soluble on expression in E. coli": "not soluble"}, {"sequence": "MGETYDLLVIGGGINGVGIARDAAGRGLSVCLCEQDDLAAHTSSASTKLIHGGLRYLEQYEFALVGKALAEREVLLRLAPHIIWPLRFLLPHQPHLRPAWMIRAGLFLYDHLGGSKRSLPRSRRLSLRTHPVGQPLQESLRTGFVYSDAWVQDARLVVLNAMDAAKRGAQIHTRTRCVGAWRDAGFWYAELEGCDGRRRTVQSRALANAAGPWAVSFLDKVAAVPHQHALRLVKGSHIVVPKLFDHDHAYIFQQPDRRIVFAIPYEHDFTLIGTTDVDYEADPSAPKIDAAEVQYLCDAVNLYFQQQITPQDVVWNYSGVRPLLDDAEDNAAEVTRDYQLEVLTDGAPLLNVFGGKLTTYRKLAEEAVDRLTQALGARKPAWTARGEALPGGEQRDIASLLERVRTARPWLPAATAQRLVRNYGTCAEQLLGDAQDMAALGQHFGADLYQAEVDYLCAREWAQTADDILWRRSKLGLRVDAEARARLEAYLQTRPAAHANAQTHVVPALEHHHHHH", "soluble on expression in E. coli": "not soluble"}, {"sequence": "GASKAFYSAGDKLFQPGDDAVASMQTYSVAQFLQPFTLNPAKASSDYLGKWVKVRGVIVDIRRKSGIAGSYYFIVTMRDEQNKTDKRLTFNFGSHNSADVEALSNGSVATIVGQVHQVQDSTIPTLQNPKVVK", "soluble on expression in E. coli": "soluble"}, {"sequence": "MAHHHHHHMASLMGFLTVSKISEPPKASVAQEAFDYIYERIAAPAEVDVERFLEIGHFESLATATCLSLEDLSLYLFAFAVDESAKRIYKISEKHFVAWMAGLISKLPRNAAPPTRENAYAPLFAAAHDAIVDLNNTIRSNEEKRSKFYQFLYNWCLKGNDASDRVDSAKELWSCFFSASPVSLTVEEARRKFTAYVCFPRINQWLDFITMLGEKATESKSGRVAVEQSGVSFDTWTQLLLFARFDNYDAYDDEDSWPVTMDDFVVYVRKLEESKKV", "soluble on expression in E. coli": "not soluble"}, {"sequence": "MAQIDFRKKINWHRRYRSPQGVKTEHEILRIFESDRGRIINSPAIRRLQQKTQVFPLERNAAVRTRLTHSMEVQQVGRYIAKEILSRLKELKLLEAYGLDELTGPFESIVEMSCLMHDIGNPPFGHFGEAAINDWFRQRLHPEDAESQPLTDDRCSVAVLRLRDGEEPLNELRRKIRQDLCHFEGNAQGIRLVHTLMRMNLTWAQVGGILKYTRPAWWRGETPETHHYLMKKPGYYLSEEAYIARLRKELNLALYSRFPLTWIMEAADDISYCVADLEDAVEKRIFTVEQLYHHLHEAWGQHEKGSLFSLVVENAWEKSRSNSLSRSTEDQFFMYLRVNTLNKLVPYAAQRFIDNLPAIFAGTFNHALLEDASECSDLLKLYKNVAVKHVFSHPDVEQLELQGYRVISGLLEIYRPLLSLSLSDFTELVEKERVKRSPIESRLFHKLSTRHRLAYVEAVSKLPSDSPEFPLWEYYYRCRLLQDYISGMTDLYAWDEYRRLMAVEQ", "soluble on expression in E. coli": "not soluble"}, {"sequence": "MTEPRSYTIEEIASLLKVSKLTVYDLVKKGKLPAFRVGRQMRITADDLRRFIAGQKGEASTVFSAVSRPTETAFRPIIISGQDMALDLLGVHLEKGGPYQSLRTYTSSLNGLIALYKGQCDIVSVHLFDGQTGEYNRPYVEKLLTGHAYIMVNLMRRPIGFYVPKGNPRGIHTWSDLGRSDVVIVNREKGAGARVLLDEQLRLHGLSPSAIRGYEREETSHLSVASAVAAGLADVGIGTEKVARMAGVEFIPLMNEQYDVVMLRTPENESLIASVLDVLRSDSFRAELEALGGYDVSQTGRIMAEYG", "soluble on expression in E. coli": "not soluble"}, {"sequence": "MGSDKIHHHHHHMSAPQAMKVLVLCGPESSGKSWLSGVIQAHFGGLVVGEYVRHFIDQQCRDTCYADIPAIARGQLAWEDRAREQAPPLLILDTHLLSNMLWSHALFGDCPTWLEEALLARRYDLHLLLSPQGVDWIADGQRCQPDLSDRQRFFDDSQAWLRRHNQPHQILDGNWPQRQLLALQSVAKLLNSDAPSCPTEC", "soluble on expression in E. coli": "not soluble"}, {"sequence": "MSLGQVGVGRVLQRYIILKGRNSEHLFVAAESLIAIDRLPAAIITRLTQTNDPLGEVMAASHIETFKEEAKVWVGDLPGWLALHGYQNSRKRAVARRYRVISGGQPIMVVTEHFLRSVFRDEGHHHHHH", "soluble on expression in E. coli": "not soluble"}, {"sequence": "MTTAHISGDWRTRYQHVTSFYFKTNHKVWCKVILSLLHTHIPMIIFIDMKGVNMDLIIQTFPLDGKTLYYVQCPVCKNNRILNSGANVSRIISDDTFRKLCGCTCDVKPATSKVEAPKQVKKAAVKKEAAPKRTGKVLTAVINGKEMTVKEIAEAYDISTSTVRQRINAGKPESEIIAPTKKK", "soluble on expression in E. coli": "not soluble"}, {"sequence": "MAHHHHHHMDSMPPLSSPCLVEQEARQVPAGCFTRAVYALHSTDNEQTETAALTVRKLIKEEDQGMMRGAASSQIPLKRKGSKTNSAKSKYGKSGKLGRSSVVSWNLKSAPKITKAAGVTSANNNENREYVSPIVWCPVTPLMDNIYRSKWRQPMGRASSQAIDNEKNICIDETNVGENDLCMCKDVEAQFVLRGGERIYTLHYVTPLSMKRRETNEENSMCYGVLPVIRICVNPPVTP", "soluble on expression in E. coli": "not soluble"}, {"sequence": "MGSDKIHHHHHHAQSLKDLLNKDNISKVVNAITGTPETIDMTGTWTYSGSAVEFESDNLLMKAGGAAAATMAENKLNEQLSKVGIKEGQMSFTFNADSTFTSTVGKKKLSGTYSYNASTKQVDLKYLKLLNLHAKVNCTSNSMDLLFNSDKLLKLMTFLGSKTNSTALKTVSSLAENYDGMMLGFGLKK", "soluble on expression in E. coli": "not soluble"}]}]}
